Experimental data from the supplement of paper PMC10567573.

B1: DCAF4 (parent)
chain: TTKCVRQYEGHVNEYAYLPLHVHE

Variants of: B1
Test: protein stability index of a GFP-peptide fusion (GPS, HEK-293T) (PSI 1-6); higher = more stable
Details: c terminus: a fixed tail appended
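Further: lentivirally expressed fusions sorted by FACS into six bins by GFP to DsRed ratio, PSI derived from sequencing read proportions per bin multiplied by bin number.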

Protein stability index, by site and new letter:
H23: S 2.73; F 1.46; A 2.78; G 2.76; E 3.21; M 2.12; N 2.81; L 2.51; I 3.56; C 2.52; R 2.48; K 3.44
Q7: A 2.52; V 2.24; M 2.19; G 2.13; E 2.96; P 2.06; D 2.8; I 2.17; Y 1.79; T 2.97; H 2.64; N 2.54; L 2.28; K 2.77
G10: P 2.18; I 1.43; W 1.65; R 2.3; K 3.44; Y 2.29; V 2.14; T 2.57; D 3.07; E 3.3; N 2.11; S 2.69; L 2.11; M 2.06
H21: C 2.56; A 2.58; E 3.27; V 2.25; Y 1.9; W 1.75; S 3.05; P 2.63; M 2.46; G 2.06; N 3.33; F 1.87; R 2.69
H11: G 2.38; A 2.7; D 2.88; V 3.56; F 1.88; T 3.25; S 2.6; W 1.81; E 3.17; P 3.25; M 2.26; N 2.96; K 2.66; C 2.1; Y 2.84; R 2.44
E24: S 2.07; K 2.29; G 2.75; T 2.1; L 2.14; D 2.84; R 2.18; F 2.85; N 2.46; Q 2.29; M 1.84; P 2.24; V 2.02; A 1.17; H 2.23
T1: H 2.65; V 2.22; S 3.81; N 2.4; E 3.14; Y 1.69; K 2.84; A 2.67; Q 2.74; M 2.19; G 2.99; D 3.45; F 1.74; L 2.99; R 2.22; W 1.92; P 2.48
V22: H 2.96; P 2.63; L 2.54; I 2.42; N 3.19; E 3.65; G 2.13; M 3.06; W 2.61; A 2.79; K 3.27; Y 2.43; R 2.58
E14: N 2.47; S 2.05; Q 2.35; F 3.16; M 1.43; A 1.85; L 1.63; V 1.44; R 2.34; D 2.79; G 2.29
L20: F 2.35; N 3.1; M 2.63; H 3; W 2.33; S 3.13; C 2.67; Q 3.06; D 3.64; A 2.78; V 2.44; Y 2.32; E 3.53; T 2.85
L18: K 2.76; N 3.15; F 2.51; Q 3.16; V 2.48; E 3.58; M 2.82; C 2.74; W 2.28; T 2.79; R 2.89; Y 2.38; H 3.09; S 2.98
Y15: M 2.96; G 3.84; L 2.97; F 3.08; S 3.28; P 3.51; W 2.12; R 3.43; I 3.09; T 2.59; N 2.88; E 3.6; A 3.57
Y17: S 3.24; G 3.37; Q 3.27; I 2.86; V 2.81; C 3.51; F 2.55; T 3.65; R 3.06; H 2.94; K 2.96; E 4.23; A 4.37; W 2.69
C4: R 2.69; H 3.19; P 3.1; E 3.59; K 2.83; Y 2.48; I 3.13; T 3.42; V 3.08; F 2.25; A 3.14; S 3.25; L 2.86; G 2.67; W 2.29; N 3.48
V12: Y 2.52; H 2.71; I 2.52; M 2.86; E 3.35; K 3.33; D 3.19; Q 2.58; L 2.76; N 2.98; R 2.6; W 2.07
P19: G 2.26; A 1.89; W 2.57; N 2.33; M 2.47; F 1.71; Q 1.75; C 1.84; R 1.91; K 1.87; L 2.16; Y 2.67; V 2.22; D 3.02
T2: G 2.69; L 2.15; Y 2.01; E 3.23; W 2.43; C 2.43; H 2.32; R 2.41; P 3.05; D 3.24; V 2.46; A 2.47; S 2.74; Q 2.41; N 2.99; K 2.64
N13: V 2.23; E 3.55; W 1.87; D 2.35; L 2.85; G 3.04; I 1.66; P 3.12; M 1.88; H 2.5; C 2.35; A 2.64; K 2.48
V5: R 1.76; M 2.18; E 3.29; L 2.84; S 1.82; Y 1.82; H 2.19; W 2.46; P 2.95; F 2.24; D 3.34; Q 2.55; I 2.17
E9: S 2.04; K 2.13; C 1.63; P 2.51; L 2.12; G 2.55; Q 2.52; H 1.97; I 1.87; N 2.52; T 1.91; R 2.18; V 2.42; Y 1.97
A16: Q 3.01; E 3.31; F 2.32; L 2.33; S 2.45; N 2.6; K 2.71; V 2.2; M 2.34; P 3.02; H 3.05; W 1.84; Y 1.87; R 2.6; T 2.82
K3: H 2.71; G 2.89; V 2.02; S 2.71; N 2.98; A 3.11; M 2.07; R 2.12; D 3.56; W 1.82; C 2.62; Y 1.6
R6: P 2.26; K 2.63; F 1.8; A 3.02; Q 3.31; N 2.95; Y 2.4; E 3.12; V 2.1; W 1.73; I 2.11; T 2.49; L 2.18; H 2.52; S 2.01
Y8: F 2.69; H 2.64; S 3.19; T 3.15; K 3.52; G 3.12; D 3.75; A 2.65; C 2.66; I 2.82; Q 3.39; P 2.42; L 2.79; E 4.03
